This is an account of results in US20250034253A1 (AKESO BIOPHARMA, published 2025).

The assay has as its target T1, human TIGIT-mFc (human; mouse, UniProt Q495A1 22-141, limits assumed).
T1 construct: also called antigen TIGIT-mFc; TIGIT-mnFc
Nature of the assay: BLI (Fortebio), TIGIT-mFc on AMC sensor, 37 C, 1:1 fit. The protocol:
The sample dilution buffer was PBS (0.02% Tween-20, 0.1% BSA, pH 7.4). TIGIT-mFc was immobilized on an AMC sensor at a concentration of […] for 50 s, and the sensor was equilibrated in the buffer for 60 s. The TIGIT-mFc immobilized on the sensor was allowed to bind to the antibody at concentrations of 0.06-5 nM (three-fold dilutions) for 120 s, and the protein was dissociated in the buffer for 300 s. The sensor was regenerated in 10 mM glycine solution (pH=1.7). The detection temperature was 37° C., the detection frequency was 0.3 Hz, and the sample plate shaking rate was 1000 rpm. The data were analyzed by 1:1 model fitting to obtain affinity constants.

T1 sequence (Q495A1 other isoform, or with tags, fused parts or gaps limits assumed): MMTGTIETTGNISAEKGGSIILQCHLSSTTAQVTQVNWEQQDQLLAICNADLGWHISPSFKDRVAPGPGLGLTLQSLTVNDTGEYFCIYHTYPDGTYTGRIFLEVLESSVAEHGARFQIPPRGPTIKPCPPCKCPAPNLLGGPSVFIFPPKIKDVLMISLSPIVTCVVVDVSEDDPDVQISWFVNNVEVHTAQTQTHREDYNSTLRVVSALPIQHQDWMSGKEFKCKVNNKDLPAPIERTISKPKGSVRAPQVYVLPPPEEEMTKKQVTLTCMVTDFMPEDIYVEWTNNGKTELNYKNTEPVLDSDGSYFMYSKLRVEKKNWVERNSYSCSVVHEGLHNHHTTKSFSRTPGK

B1: RG6058 (antibody, V domains shown)
VH: EVQLQQSGPGLVKPSQTLSLTCAISGDSVSSNSAAWNWIRQSPSRGLEWLGKTYYRFKWYSDYAVSVKGRITINPDTSKNQFSLQLNSVTPEDTAVFYCTRESTTYDLLAGPFDYWGQGTLVTVSS
VL: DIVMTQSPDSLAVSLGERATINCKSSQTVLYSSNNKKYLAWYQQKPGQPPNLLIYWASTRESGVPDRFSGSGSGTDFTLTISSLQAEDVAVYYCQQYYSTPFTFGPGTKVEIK
On to B1, for which the “Maximum signal height of analyte (nm)” value amounted to 0.16 nm and the “S E(kdis)” value was found to be 3.46e-05 s⁻¹.
